Common to all, as to experiment: SPR, peptide on CAP chip, 1:1 fit
A general note: Surface plasmon resonance follows binding to a sensor surface in real time, without labels.

Experiment [1] concerns the target T1, citrullinated human enolase peptide 1 (CEP-1) (human, cysteine pairing not given here; also: biotinylated form used in SPR, place not given here).
T1 construct: Coated directly on plates in ELISA; biotinylated and captured on a CAP chip in SPR; also called cit a-enolase; citrullinated alpha-enolase peptide 1
T1 peptide: CKIHA[Cit]EIFDS[Cit]GNPTVEC

Experiment [2] addresses T2, citrullinated human fibrinogen residues 36-52 (cit-fib) (human, also: biotinylated, place not given here).
T2 construct: Biotinylated peptide on streptavidin plates (ELISA) or CAP chip (SPR); also called Fib36-52; cit fibrinogen
T2 peptide: NEEGFFSA[Cit]GHRPLDKK

Experiment [3] deals with T3, citrullinated human vimentin residues 60-75 (cit-vim) (human, also: biotinylated, place not given here).
T3 construct: Biotinylated peptide on streptavidin plates (ELISA) or CAP chip (SPR); also called Vim60-75; cit vimentin
T3 peptide: VYAT[Cit]SSAV[Cit]L[Cit]SSVP

Where no end group is shown, it is not given here. [ ]: non-standard residue; d: D form. Cit = NC(=O)NCCC[C@H](N)C(=O)O

B1: antibody A09 (antibody)
chain 1: KSRTEIHSRVCGGHRAQLQGQLALGRVNGYGDSTLEGRVVVNAPTKVDNPNRLQPLPWGLADPHPVVTIIPNGASRDSAGEGQGLRRLHQSW
chain 2: GPLSDLINDDFGGFAWVLLVPGDKSITHNITAACSAGDGDRLSRRPRHGGRLSQHRL
As usually defined, the koff is a measure of how fast the partners let go of each other. A low value points to a long-lived complex. As a reminder, the Kd is the concentration at which binding is half-saturated. On to B1, for which the koff in experiment [1] is 0.0429 s⁻¹; in experiment [2] it was 0.0291 s⁻¹; in experiment [3], 0.0433 s⁻¹. The Kd in experiment [2] was 160 nM; in experiment [3], 180 nM.

For the origin of these results see patent US20150056208A1 (VILARA, published 2015).
